The record followed here is patent publication US9926349B2, “Chimeric molecule useful in immunotherapy for leishmaniasis, which includes a fragment of the PFR1 protein of leishmania infantum with specific immunodominant epitopes” (priority 2011, dated 2018).

This assay concerns alveolar macrophages of naive rat. Put plainly: Nitric oxide production by alveolar macrophages stimulated with recombinant protein. The class given is cell-based. Conditions: for NO activation in the presence of polymyxin B: plus polymyxin B (LPS activity-induced inhibitor). The text has this:
FIG. 2. Measurement of Nitric Oxide (NO) concentration in the supernatant of macrophages culture stimulated with lipopolysaccharide (LPS); lipopolysaccharide+polymyxin B (LPS+PolB); purified PFR-1 protein (PFR-1); purified PFR-1 protein+polymyxin B (PFR1+PolB); L-NG-monomethyl arginine citrate (LNMMA); purified PFR-1 protein+L-NG-monomethyl arginine citrate (PFR1+LNMMA). Concentration is expressed in μmol/liter.
PFR1 protein of Leishmania infantum is encompassed within the family of characteristic proteins of paraflagellar rod proteins from kinetoplastids. In FIG. 1, we show the PFR1 recombinant protein of L. infantum expressed in a prokaryotic expression system and purified by affinity chromatography. […] This activation of nitric oxide production confers to the aforementioned protein a relevant immunological feature because NO favors the clearance of the amastigotes of Leishmania that multiply within the host macrophages. In FIG. 2, the values of NO production by these alveolar macrophages are collected by stimulating them with LPS (control) and the PFR1 protein.

On to “lipopolysaccharide [LPS, reference compound]”, for which the “NO activation in the presence of polymyxin B” value was “inhibited by the presence of polymyxin B”.

B1: PFR1 protein: PFR1 recombinant protein of L. infantum expressed in a prokaryotic expression system and purified by affinity chromatography (protein, listed as Leishmania infantum)
chain: MMTPEDATGLEAARKQKIHNLKLKTACLENEELVQELHISDWSETQRQKLRGAHEKGEELLASVEVGTKWNLMEAYDLAKLMRVCGLEMSQRELYRPEDKPQFMDIIGVKKVLQDLRQNRNKTRVVSFTQLIDNSIAKMEKVEEELRRSQLDATQLAQVPTRTVKMMEDIMNATQIQNALASTDDQMQTQLAQLEKTNEIQNVAMHDGETQVAEEQMWTKVQLQERLIELLKDKFGLIGKCEEENAQFKEIYEVQKQANQETSQMKDAKRRLRQRCETDLKHIQDAIQKADLEDAEAVKRYPRNKERSERAIKENEEMQEEAWNKIQDLERQLQNLGTDRFDEVKRRIEEVDREEKRRVENAQFLEIAAQHKKLLELTVYNCDLAMRCTGLVEELVSEGCAGVKARYDKTNQDLAALRLEVHKEHLEYFRMLYLTLGSLIYKKEKRLEEIDRNIRLAHIQLEFCVETFDPNAKKHADMKKELYRLRQGVEEELAMLKEKQAAALDDFKESEEALDAAGIEFSHPVDENNEEVLTRRSKMVEYKSHLTKEEEVRIAAEREEIKRARLLRSGGESAAAQITSGSMNADYAASAQLEL
modifications: /mol_type=”protein“ /organism=”Leishmania infantum“; REGION 1..595 ”PFR1 protein aminoacids“; REGION 160..595 ”SEQ ID No 9“; REGION 160..548 ”SEQ ID No 10“; REGION 160..385 ”SEQ ID No 11“; PEPTIDE 103..113 ”SEQ ID No 1“; PEPTIDE 150..159 ”SEQ ID No 2“; PEPTIDE 165..173 ”SEQ ID No 4“; PEPTIDE 204..212 ”SEQ ID No 5“; PEPTIDE 222..230 ”SEQ ID No 6“; PEPTIDE 373..382 ”SEQ ID No 3“
Turning to B1, the “NO activation in the presence of polymyxin B” value is “unlike the one detected for PFR1 protein, the activation observed for LPS is inhibited by the presence of polymyxin B”. In addition, the “production of nitric oxide (NO) by alveolar macrophages” value (naive rat alveolar macrophages stimulated with the protein) is given as “ability to activate the production of nitric oxide (NO)”. Further, the “NO activation in the presence of LNMMA” value (plus L-NG-monomethyl arginine, nitric oxide synthase inhibitor) is “inhibits the NO activation induced by the PFR1 protein”.
